Source: article PMC4520715

Legend:
Assay in all cases: co-IP
[1] = target: myc-UBQLN1 (human) (human) (UniProt Q9UMX0)
[2] = target: Rv1566-V5 (Mycobacterium tuberculosis)
[3] = target: Rv1926c-V5 (Mycobacterium tuberculosis) (UniProt P9WIP1)
Sequence of UniProt P9WIP1 (P9WIP1 30-159): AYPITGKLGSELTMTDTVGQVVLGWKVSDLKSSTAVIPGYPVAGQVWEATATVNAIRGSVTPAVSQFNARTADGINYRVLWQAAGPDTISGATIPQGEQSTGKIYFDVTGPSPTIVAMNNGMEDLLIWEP

| Substance | percent of the amount directly precipitated [1] [%] | percent of the amount directly precipitated [2] [%] | percent of the amount precipitated directly with the myc antibody [3] [%] |
| --- | --- | --- | --- |
| Rv1566-V5 (natural protein) | 7 | – | – |
| myc-UBQLN1 (human) (from UniProt Q9UMX0 1-589) (natural protein) | – | 7 | 27 |
